EC50 data for two molecules are collected here from patent publication US20240101683A1 (published 2024).

The target in test [1] is T1, Human FGFR2βIIIb (human, UniProt P21802-21 22-263, limits assumed).
T1 construct: Construct used in the ELISA (tag, Fc, limits) is not described
As to the kind of experiment: ELISA, coated antigen, anti-Fab HRP.

The target of test [2] is T2, Murine FGFR2IIIb (murine, UniProt P21803-2 22-263, limits assumed).
T2 construct: Construct used in the ELISA is not described
As to the kind of experiment: ELISA, coated antigen, anti-Fab HRP.

The target in test [3] is T3, rhFGFR2IIIb-Fc (recombinant human FGFR2IIIb-Fc) (human, UniProt P21802-3 22-378, limits assumed).
T3 construct: Coated on the ELISA plate at 2 ug/mL; not shown: Fc part
As to the kind of experiment: ELISA, coated rhFGFR2IIIb-Fc, anti-Fab HRP.

T1 sequence (P21802 other isoform, or with tags, fused parts or gaps limits assumed): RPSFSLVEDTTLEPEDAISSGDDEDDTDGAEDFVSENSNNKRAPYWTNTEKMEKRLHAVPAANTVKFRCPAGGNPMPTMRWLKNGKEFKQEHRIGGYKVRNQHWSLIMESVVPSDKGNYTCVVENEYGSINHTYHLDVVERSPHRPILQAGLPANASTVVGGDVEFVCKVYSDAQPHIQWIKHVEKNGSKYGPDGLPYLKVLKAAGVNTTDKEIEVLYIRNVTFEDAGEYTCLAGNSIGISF
T3 sequence (P21802 other isoform, or with tags, fused parts or gaps limits assumed): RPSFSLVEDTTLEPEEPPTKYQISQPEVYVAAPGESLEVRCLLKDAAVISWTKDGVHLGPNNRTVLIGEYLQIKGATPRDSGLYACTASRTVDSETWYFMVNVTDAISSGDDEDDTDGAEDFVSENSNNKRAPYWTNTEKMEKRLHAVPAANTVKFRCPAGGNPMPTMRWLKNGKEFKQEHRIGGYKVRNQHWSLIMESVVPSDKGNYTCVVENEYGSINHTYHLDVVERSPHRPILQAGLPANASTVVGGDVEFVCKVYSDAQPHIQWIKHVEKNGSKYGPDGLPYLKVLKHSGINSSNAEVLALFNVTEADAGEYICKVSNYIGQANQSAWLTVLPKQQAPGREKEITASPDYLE
T2 sequence (P21803 other isoform, or with tags, fused parts or gaps limits assumed): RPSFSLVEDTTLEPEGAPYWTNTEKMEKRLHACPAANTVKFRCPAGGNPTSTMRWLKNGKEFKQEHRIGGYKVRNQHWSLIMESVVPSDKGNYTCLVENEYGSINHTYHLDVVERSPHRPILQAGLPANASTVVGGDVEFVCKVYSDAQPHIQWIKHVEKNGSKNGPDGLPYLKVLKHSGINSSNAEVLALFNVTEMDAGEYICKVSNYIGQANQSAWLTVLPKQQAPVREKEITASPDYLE

B1: FWB1925 (antibody, V domains shown)
VH: QVQLVQSGAEVKKPGSSVKVSCKASGYIFTSYNVHWVRQAPGQGLEWIGSIYPDNGDSTYDEDYRGRATITADKSTSTAYMELSSLRSEDTAVYYCARGDFAYWGQGTLVTVSS
VL: DIQMTQSPSSLSASVGDRVTITCKGSNGISNDIAWYQQKPGKAPKLLIYSASYRYSGVPSRFSGSGSGTDFTFTISSLQPEDIATYYCQQHSTTPYTFGQGTKLEIK
B1: the EC50 in test [1] was 0.173 nM; in test [2], 0.0908 nM; in test [3], 0.643 nM.

B2: FWB1906 (antibody, V domains shown)
VH: QVQLVQSGAEVKKPGSSVKVSCKASGYIFTSYNVHWVRQAPGQGLEWIGSIYPDNGDSSYNQNYRGRATITADKSTSTAYMELSSLRSEDTAVYYCARGDFAYWGQGTLVTVSS
VL: DIQMTQSPSSLSASVGDRVTITCKASNGISNDIAWYQQKPGKAPKLLIYSASYRYSGVPSRFSGSGSGTDFTFTISSLQPEDIATYYCQQHSTTPYTFGQGTKLEIK
As for B2, the concentration giving a half-maximal response (EC50) in test [1] is 0.167 nM; in test [2] it was 0.289 nM; in test [3] it was 0.324 nM.
